Molecular target: Fcγ受体(FcγR)
Assay: cell-based or functional assay

Substance: 2C11 huG1, HEK (145-2C11 variable regions on human IgG1/kappa, expressed in HEK 293E cells) (from UniProt P01857 1-330) (antibody)
- T cell activation in vivo (markers on splenocytes of dosed Balb/c mice, flow cytometry): 4 倍
